{"source": "patent US20130289253A1", "key": {"[1]": {"target": "HA peptide-stimulated PBMC (antigen-specific CD4+ T cells)"}, "[2]": {"target": "control (Fig. 48)"}, "[3]": {"target": "HA peptide-stimulated PBMC (antigen-specific CD4+ T cells)", "remark": "listed apart in the source"}, "[4]": {"target": "HA peptide-stimulated PBMC (antigen-specific CD4+ T cells)", "remark": "listed apart in the source"}, "[5]": {"target": "control (Fig. 48)", "assay": "flow cytometry, 4 °C; control"}, "[6]": {"target": "control (Fig. 48)", "assay": "flow cytometry, RT, 7 µg/ml; control"}, "[7]": {"target": "HA peptide-stimulated PBMC (antigen-specific CD4+ T cells)", "assay": "flow cytometry, 4 °C; HA306-318 stim"}, "[8]": {"target": "control (Fig. 48)", "assay": "flow cytometry, RT, 3.5 µg/ml; control"}, "[9]": {"target": "control (Fig. 48)", "assay": "flow cytometry, RT, 1.75 µg/ml; control"}, "[10]": {"target": "HA peptide-stimulated PBMC (antigen-specific CD4+ T cells)", "assay": "flow cytometry, RT, 7 µg/ml; HA306-318 stim"}, "[11]": {"target": "HA peptide-stimulated PBMC (antigen-specific CD4+ T cells)", "assay": "flow cytometry, RT, 3.5 µg/ml; HA306-318 stim"}, "[12]": {"target": "HA peptide-stimulated PBMC (antigen-specific CD4+ T cells)", "assay": "flow cytometry, RT, 1.75 µg/ml; HA306-318 stim"}, "[13]": {"target": "HA peptide-stimulated PBMC (antigen-specific CD4+ T cells)", "assay": "flow cytometry, RT 1 h, 10 µg/ml; HA306-318 stim"}, "[14]": {"target": "HA peptide-stimulated PBMC (antigen-specific CD4+ T cells)", "assay": "flow cytometry, 37 °C 1 h, 10 µg/ml; HA306-318 stim"}, "[15]": {"target": "HA peptide-stimulated PBMC (antigen-specific CD4+ T cells)", "assay": "flow cytometry, staining at 4°C 1 h, 28 µg/ml; 0 min, no imidazole"}, "[16]": {"target": "HA peptide-stimulated PBMC (antigen-specific CD4+ T cells)", "assay": "flow cytometry, staining at 4°C 1 h, 28 µg/ml; 1 min, no imidazole"}, "[17]": {"target": "HA peptide-stimulated PBMC (antigen-specific CD4+ T cells)", "assay": "flow cytometry, staining at 4°C 1 h, 28 µg/ml; 3 min, no imidazole"}, "[18]": {"target": "HA peptide-stimulated PBMC (antigen-specific CD4+ T cells)", "assay": "flow cytometry, staining at 4°C 1 h, 28 µg/ml; 5 min, no imidazole"}, "[19]": {"target": "HA peptide-stimulated PBMC (antigen-specific CD4+ T cells)", "assay": "flow cytometry, staining at 4°C 1 h, 28 µg/ml; 10 min, no imidazole"}, "[20]": {"target": "control (Fig. 48)", "assay": "flow cytometry, RT; control; conventional BSP multimer, concentration not given"}}, "note": "“And” between values parts separate entries of the source, which are not always exact repeats. Equal entries are not always repeated. Where two headings read alike, the source gives them in different places."}
{"substance": "DR4 2×His DTB-HA306-318 complexes (DTB-streptactin purified monomers) (from UniProt P01903 26-216) (peptide-MHC)", "values": [{"measurement": "% of cells in Q2 (multimer+ CD4+)", "setting": "[1]", "value": "24.9% and 9.81%"}, {"measurement": "% of cells in Q2 (multimer+ CD4+)", "setting": "[2]", "value": "0.384% and 0.618%"}, {"measurement": "% of cells in Q2 (multimer+ CD4+)", "setting": "[3]", "value": 12.3, "unit": "%"}, {"measurement": "% of cells in Q2 (multimer+ CD4+)", "setting": "[4]", "value": 4.52, "unit": "%"}, {"measurement": "% of cells in Q2 (multimer+ CD4+)", "setting": "[5]", "value": "0.355% and 0.561%"}, {"measurement": "% of cells in Q2 (multimer+ CD4+)", "setting": "[6]", "value": 0.11, "unit": "%"}, {"measurement": "% of cells in Q2 (multimer+ CD4+)", "setting": "[7]", "value": "2.52% and 2.3%"}, {"measurement": "% of cells in Q2 (multimer+ CD4+)", "setting": "[8]", "value": 0.222, "unit": "%"}, {"measurement": "% of cells in Q2 (multimer+ CD4+)", "setting": "[9]", "value": 0.142, "unit": "%"}, {"measurement": "% of cells in Q2 (multimer+ CD4+)", "setting": "[10]", "value": 6.15, "unit": "%"}, {"measurement": "% of cells in Q2 (multimer+ CD4+)", "setting": "[11]", "value": 7.94, "unit": "%"}, {"measurement": "% of cells in Q2 (multimer+ CD4+)", "setting": "[12]", "value": 7.23, "unit": "%"}, {"measurement": "% of cells in Q2 (multimer+ CD4+)", "setting": "[13]", "value": "5.35% and 3.3%"}, {"measurement": "% of cells in Q2 (multimer+ CD4+)", "setting": "[14]", "value": 6.23, "unit": "%"}, {"measurement": "% of cells in Q2 (multimer+ CD4+)", "setting": "[15]", "value": 4.5, "unit": "%"}, {"measurement": "% of cells in Q2 (multimer+ CD4+)", "setting": "[16]", "value": 5.3, "unit": "%"}, {"measurement": "% of cells in Q2 (multimer+ CD4+)", "setting": "[17]", "value": 4.68, "unit": "%"}, {"measurement": "% of cells in Q2 (multimer+ CD4+)", "setting": "[18]", "value": 4.59, "unit": "%"}, {"measurement": "% of cells in Q2 (multimer+ CD4+)", "setting": "[19]", "value": 4.35, "unit": "%"}, {"measurement": "% of cells in Q2 (multimer+ CD4+)", "setting": "[20]", "value": 0.121, "unit": "%"}]}
